Data as given in patent publication US10654893B2, “Self-assembling peptide compositions” (3-D MATRIX, LTD., priority 2014, dated 2020).

Legend:
Assay type in all cases: physicochemical
[1] = pH of reference peptide compositions in water; settings: reference composition in water
Source text: Table 2, below, presents pH concentrations observed for reference compositions in which the indicated peptide is solubilized in water at the indicated concentration.

[2] = Visual observation of peptide compositions with selected salts (cloud point, critical ionic strength); settings: for Observation: room temperature; for Conc. at cloud point / Ionic strength at cloud point: visual observation of solubility
Protocol: Visual observations of RADA16 (SEQ ID NO:1), KLD12 (SEQ ID NO:2), and IEIK13 (SEQ ID NO:3) compositions with selected salts (e.g. KCl, MgCl2, CaCl2) are summarized in Tables 7-9. […] Apparent stiffness of RADA16 (SEQ ID NO:1), KLD12 (SEQ ID NO:2) and IEIK13 (SEQ ID NO:3) compositions was increased with increased ionic strength.
Critical ion strengths were determined from the visual observations recorded in Tables 7-9. When the ionic strengths of peptide compositions were higher than 0.9 M (RADA16 (SEQ ID NO:1)), 0.3 M (KLD12 (SEQ ID NO:2)) or 0.03 M (IEIK13 (SEQ ID NO:3)), the peptide compositions began phase separation. 0.9 M, 0.3 M and 0.03 M may represent critical ion strengths for RADA16 (SEQ ID NO:1), KLD12 (SEQ ID NO:2) and IEIK13 (SEQ ID NO:3), respectively.

[3] = Congo Red assay of gel formation in PBS solution (pH 7.4); settings: 0.5%, 1.0%, 1.5%, 2.0% and 2.5%
Protocol: A Congo Red assay was performed to determine gel formation of peptide compositions in a PBS (Phosphate buffered saline) solution (pH 7.4), as shown in FIG. 1. 100 μl of each gel at selected concentrations were plated on a glass slide. After 30 seconds, 500 μl of 1% Congo Red solution was added around and on top of each of the composition aliquots and then the excess Congo Red solution was wiped off prior to examination. RADA16 (SEQ ID NO:1), IEIK13 (SEQ ID NO:3), and KLD12 (SEQ ID NO:2) were plated at selected concentrations of 0.5%, 1.0%, 1.5%, 2.0% and 2.5%. Visual observation determined the success or failure of gelation at each concentration.

[4] = Rheological properties at selected ionic strengths (DHR-1, 20 mm plates)
Source text: FIGS. 27-29 show rheological properties measured with a rheometer (DHR-1, TA Instruments) with 20 mm plates when ion strengths are slightly lower than the critical ion strengths. Ion strengths of RADA16 (SEQ ID NO:1), KLD12 (SEQ ID NO:2) and IEIK13 (SEQ ID NO:3) were 0.7 M, 0.2 M and 0.02M, respectively for the measurements. Rheological properties of RADA16 (SEQ ID NO:1), KLD12 (SEQ ID NO:2) and IEIK13 (SEQ ID NO:3) compositions were higher after adjusting their ionic strength levels with NaCl to 0.7 M (RADA16 (SEQ ID NO:1)), 0.2 M (KLD12 (SEQ ID NO:2)) or 0.02 M (IEIK13 (SEQ ID NO:3)).
Rheological properties of peptide compositions at selected ionic strengths were measured using a rheometer (DHR-1, TA Instruments) with 20 mm plates. […] Results are shown in FIG. 30 for RADA16 (SEQ ID NO:1) and in FIG. 31 for IEIK13 (SEQ ID NO:3).
Viscosities of peptide compositions at selected ionic strength levels were evaluated. […] Viscosities of 1% IEIK13 (SEQ ID NO:3) compositions were evaluated using a rheometer (DHR-1, TA Instruments) with 20 mm plates. The results are shown in FIGS. 32A and 32B for IEIK13 (SEQ ID NO:3).

Work on “Arg-Ala-Asp-Ala-Arg-Ala-Asp-Ala-Arg-Ala-Asp-Ala-Arg-Ala-Asp-Ala [RADA16]” yielded a pH ([1]; Concentration 0.5%) of 2.7, a pH ([1]; Concentration 1.0%) of 2.5 and a pH ([1]; Concentration 1.5%) of 2.5. For the same substance, the pH ([1]; Concentration 2.0%) was 2.5, the pH ([1]; Concentration 2.5%) was 2.5 and the Observation ([2]; RADA16 0.5%, DPBS (pH 3.2) 1.0 M, ionic strength 1.0 M) was “Cloudy, phase-separated”. The Observation ([2]; RADA16 0.55%, DPBS (pH 3.2) 0.95 M, ionic strength 0.95 M) was “Slightly cloudy, brittle gel”, the Observation ([2]; RADA16 0.6%, DPBS (pH 3.2) 0.9 M, ionic strength 0.9 M) was “Clear, thick, stiffer gel” and the Observation ([2]; RADA16 0.75%, DPBS (pH 3.2) 0.75 M, ionic strength 0.75 M) was “Clear, thick, stiffer gel”. For the same substance, the Observation ([2]; RADA16 0.9%, DPBS (pH 3.2) 0.6 M, ionic strength 0.6 M) was “Clear, thick, stiffer gel”, the Observation ([2]; RADA16 0.93%, KCl 1.15 M, ionic strength 1.15 M) was “Cloudy, phase-separated” and the Observation ([2]; RADA16 0.95%, KCl 1.1 M, ionic strength 1.1 M) was “Slightly cloudy, brittle gel”. The Observation ([2]; RADA16 0.98%, KCl 1.05 M, ionic strength 1.05 M) was “Slightly cloudy, thick,”, the Observation ([2]; RADA16 1.0%, KCl 1.0 M, ionic strength 1.0 M) was “Clear, thick, stiffer gel” and the Observation ([2]; RADA16 1.0%, NaCl 1.0 M, ionic strength 1.0 M) was “Cloudy, phase-separated”. For the same substance, the Observation ([2]; RADA16 1.03%, KCl 0.95 M, ionic strength 0.95 M) was “Clear, thick, stiffer gel”, the Observation ([2]; RADA16 1.03%, NaCl 0.95 M, ionic strength 0.95 M) was “Cloudy, phase-separated” and the Observation ([2]; RADA16 1.05%, DPBS (pH 3.2) 0.45 M, ionic strength 0.45 M) was “Clear, thick, stiffer gel”. The Observation ([2]; RADA16 1.05%, KCl 0.9 M, ionic strength 0.9 M) was “Clear, thick, stiffer gel”, the Observation ([2]; RADA16 1.05%, NaCl 0.9 M, ionic strength 0.9 M) was “Slightly cloudy, brittle gel” and the Observation ([2]; RADA16 1.08%, NaCl 0.85 M, ionic strength 0.85 M) was “Clear, thick, stiffer gel”. For the same substance, the Observation ([2]; RADA16 1.10%, NaCl 0.8 M, ionic strength 0.8 M) was “Clear, thick, stiffer gel”, the Observation ([2]; RADA16 1.13%, KCl 0.75 M, ionic strength 0.75 M) was “Clear, thick, stiffer gel” and the Observation ([2]; RADA16 1.13%, NaCl 0.75 M, ionic strength 0.75 M) was “Clear, thick, stiffer gel”. The Observation ([2]; RADA16 1.2%, DPBS (pH 3.2) 0.3 M, ionic strength 0.3 M) was “Clear, thick, stiffer gel”, the Observation ([2]; RADA16 1.2%, KCl 0.6 M, ionic strength 0.6 M) was “Clear, thick, stiffer gel” and the Observation ([2]; RADA16 1.2%, NaCl 0.6 M, ionic strength 0.6 M) was “Clear, thick, stiffer gel”. For the same substance, the Observation ([2]; RADA16 1.27%, KCl 0.45 M, ionic strength 0.45 M) was “Clear, thick, stiffer gel”, the Observation ([2]; RADA16 1.27%, NaCl 0.45 M, ionic strength 0.45 M) was “Clear, thick, stiffer gel” and the Observation ([2]; RADA16 1.28%, CaCl2 0.433 M, ionic strength 1.3 M) was “Cloudy, phase-separated”. The Observation ([2]; RADA16 1.28%, MgCl2 0.433 M, ionic strength 1.3 M) was “Cloudy, phase-separated”, the Observation ([2]; RADA16 1.29%, CaCl2 0.417 M, ionic strength 1.25 M) was “Slightly cloudy, brittle gel” and the Observation ([2]; RADA16 1.29%, MgCl2 0.417 M, ionic strength 1.25 M) was “Slightly cloudy, brittle gel”. The Observation ([2]; RADA16 1.3%, CaCl2 0.4 M, ionic strength 1.2 M) was “Slightly cloudy, thick,”, the Observation ([2]; RADA16 1.3%, MgCl2 0.4 M, ionic strength 1.2 M) was “Slightly cloudy, thick,” and the Observation ([2]; RADA16 1.31%, CaCl2 0.383 M, ionic strength 1.15 M) was “Clear, thick, stiffer gel”. The Observation ([2]; RADA16 1.31%, MgCl2 0.383 M, ionic strength 1.15 M) was “Clear, thick, stiffer gel”, the Observation ([2]; RADA16 1.32%, CaCl2 0.35 M, ionic strength 1.05 M) was “Clear, thick, stiffer gel” and the Observation ([2]; RADA16 1.32%, MgCl2 0.35 M, ionic strength 1.05 M) was “Clear, thick, stiffer gel”. The Observation ([2]; RADA16 1.35%, CaCl2 0.3 M, ionic strength 0.9 M) was “Clear, thick, stiffer gel”, the Observation ([2]; RADA16 1.35%, DPBS (pH 3.2) 0.15 M, ionic strength 0.15 M) was “Clear, thick, stiffer gel” and the Observation ([2]; RADA16 1.35%, KCl 0.3 M, ionic strength 0.3 M) was “Clear, thick, stiffer gel”. The Observation ([2]; RADA16 1.35%, MgCl2 0.3 M, ionic strength 0.9 M) was “Clear, thick, stiffer gel”, the Observation ([2]; RADA16 1.35%, NaCl 0.3 M, ionic strength 0.3 M) was “Clear, thick, stiffer gel” and the Observation ([2]; RADA16 1.38%, CaCl2 0.25 M, ionic strength 0.75 M) was “Clear, thick, stiffer gel”. The Observation ([2]; RADA16 1.38%, MgCl2 0.25 M, ionic strength 0.75 M) was “Clear, thick, stiffer gel”, the Observation ([2]; RADA16 1.4%, CaCl2 0.2 M, ionic strength 0.6 M) was “Clear, thick, stiffer gel” and the Observation ([2]; RADA16 1.4%, MgCl2 0.2 M, ionic strength 0.6 M) was “Clear, thick, stiffer gel”. For the same substance, the Observation ([2]; RADA16 1.43%, CaCl2 0.15 M, ionic strength 0.45 M) was “Clear, thick, stiffer gel”, the Observation ([2]; RADA16 1.43%, KCl 0.15 M, ionic strength 0.15 M) was “Clear, thick, stiffer gel” and the Observation ([2]; RADA16 1.43%, MgCl2 0.15 M, ionic strength 0.45 M) was “Clear, thick, stiffer gel”. The Observation ([2]; RADA16 1.43%, NaCl 0.15 M, ionic strength 0.15 M) was “Clear, thick, stiffer gel”, the Observation ([2]; RADA16 1.45%, CaCl2 0.1 M, ionic strength 0.3 M) was “Clear, thick, stiffer gel” and the Observation ([2]; RADA16 1.45%, MgCl2 0.1 M, ionic strength 0.3 M) was “Clear, thick, stiffer gel”. For the same substance, the Observation ([2]; RADA16 1.48%, CaCl2 0.05 M, ionic strength 0.15 M) was “Clear, thick, stiffer gel”, the Observation ([2]; RADA16 1.48%, MgCl2 0.05 M, ionic strength 0.15 M) was “Clear, thick, stiffer gel” and the Observation ([2]; RADA16 1.5%, CaCl2 0 M, ionic strength 0 M) was “Clear, thick gel”. For the same substance, the Observation ([2]; RADA16 1.5%, DPBS (pH 3.2) 0 M, ionic strength 0 M) was “Clear, thick gel”, the Observation ([2]; RADA16 1.5%, KCl 0 M, ionic strength 0 M) was “Clear, thick gel” and the Observation ([2]; RADA16 1.5%, MgCl2 0 M, ionic strength 0 M) was “Clear, thick gel”. For the same substance, the Observation ([2]; RADA16 1.5%, NaCl 0 M, ionic strength 0 M) was “Clear, thick gel”, the “Ionic strength range that did not noticeably change the opacity of compositions” value ([2]; approximately, depending on salt identities) was 0.85˜1.15 M and the “Critical ion strength (above it compositions began phase separation)” value ([2]; from visual observations of Tables 7-9) was 0.9 M. The “Critical ionic strength (when the composition becomes cloudy)” value ([2]; range over salts) was 0.9˜1.2 M, the “Conc. at cloud point” value ([2]; salt CaCl2) was 0.383~0.4 M and the “Ionic strength at cloud point” value ([2]; salt CaCl2) was 1.15~1.2 M. For the same substance, the “Conc. at cloud point” value ([2]; salt DPBS (pH 3.2)) was 0.9~0.95 M, the “Ionic strength at cloud point” value ([2]; salt DPBS (pH 3.2)) was 0.9~0.95 M and the “Conc. at cloud point” value ([2]; salt KCl) was 1.0~1.05 M. For the same substance, the “Ionic strength at cloud point” value ([2]; salt KCl) was 1.0~1.05 M, the “Conc. at cloud point” value ([2]; salt MgCl2) was 0.383~0.4 M and the “Ionic strength at cloud point” value ([2]; salt MgCl2) was 1.15~1.2 M. The “Conc. at cloud point” value ([2]; salt NaCl) was 0.85~0.9 M, the “Ionic strength at cloud point” value ([2]; salt NaCl) was 0.85~0.9 M and the “Gel formation (success or failure of gelation)” value [3] was “gelled at all concentrations”. For the same substance, the “Rheological properties as a function of ionic strength” value ([4]; 1% compositions, NaCl, decreased at higher ionic strength) was “increased with ionic strength adjustment up to 0.7 M”, the “Rheological properties after adjusting ionic strength with NaCl” value ([4]; NaCl 0.7 M (RADA16), 0.2 M (KLD12), 0.02 M (IEIK13), 1%) was “higher” and the “Rheological properties with NaCl versus KCl and CaCl2” value ([4]; RADA16 compositions with salts) was “slightly higher”.
